In patent US6949349:
Positions of bridges follow the written chain, without caps; N, C: chain ends. No end group written: not given here.

Key:
[1] = biological target: T1, recombinant human IGFBP-3 (human, UniProt P17936 28-291); test: BIAcore competition: peptide dilutions with 20 nM IGFBP-3 over immobilized IGF-II
T1 construct: also called rhIGFBP-3
Experimental: IGF-II was immobilized on a dextran chip for inhibition assays using a BIAcore™ 2000 surface-plasmon-resonance device (BIAcore, Inc., Piscataway, N.J.) to measure free binding protein. IGF-II was biotinylated as described above, and injected over a chip to which streptavidin had been coupled (BIAcore, Inc.) to give approximately 1500 RU of immobilized IGF-II. […] After incubation for ≧1 hour at room temperature, an aliquot of 20 µl was injected at a flow rate of 20 µl/min over the IGF-II chip.

IGFBP-1 [2] = biological target: T2, IGFBP-1 (human, UniProt P08833 26-259); test: BIAcore competition: peptide inhibits IGFBP-1 binding to IGF-I; ratio against bp1-14
T2 construct: Biotinylated in the ELISA assays; also called rhIGFBP-1
T2 sequence (looked up): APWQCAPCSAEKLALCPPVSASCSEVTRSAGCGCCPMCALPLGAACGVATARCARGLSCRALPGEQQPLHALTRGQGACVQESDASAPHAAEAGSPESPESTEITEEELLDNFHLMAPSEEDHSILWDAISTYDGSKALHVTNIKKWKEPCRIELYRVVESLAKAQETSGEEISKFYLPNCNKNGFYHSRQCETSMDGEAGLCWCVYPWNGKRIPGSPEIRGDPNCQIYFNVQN

IGFBP-1 [3] = biological target: T2, IGFBP-1; test: BIAcore competition: peptide inhibits IGFBP-1 binding to IGF-I; the reference bp1-16 itself
IGFBP-1 [4] = biological target: T2, IGFBP-1; test: BIAcore competition (starred): peptide inhibits IGFBP-1 binding to IGF-I; ratio to bp1-01 (wt)
[5] = biological target: T3, recombinant human IGFBP-1 (human, UniProt P08833 26-259); test: cell-based or functional assay
T3 sequence (looked up): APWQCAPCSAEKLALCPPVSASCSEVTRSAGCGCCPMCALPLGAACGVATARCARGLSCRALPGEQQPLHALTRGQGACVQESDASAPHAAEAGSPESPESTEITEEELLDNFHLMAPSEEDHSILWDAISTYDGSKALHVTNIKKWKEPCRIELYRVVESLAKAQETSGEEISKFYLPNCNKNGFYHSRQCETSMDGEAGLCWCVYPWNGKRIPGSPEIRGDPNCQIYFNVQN

[6] = biological target: T3, recombinant human IGFBP-1; test: ELISA: peptide dilutions with 20 nM biotinylated IGFBP-1 on IGF-I coated plate
Description: (§1) The peptide/IGFBP mix was then removed and the plate was washed ten times with PBS buffer containing 0.05% TWEEN-20™ surfactant.

[7] = biological target: T3, recombinant human IGFBP-1; test: phage ELISA titration on IGFBP-1 plate with IGF-I (FIG. 28)
Experimental: (§2) The plates were then washed ten times, as above, and a solution of rabbit anti-phage antibody mixed with a goat-anti-rabbit conjugate of horse radish peroxidase was added. After an incubation of 1 hour at room temperature, the plates were developed with a chromogenic substrate, o-phenylenediamine (Sigma). The reaction was stopped with addition of ½ volume of 2.5 M H_2SO_4. Optical density at 490 nm was measured on a spectrophotometric plate reader.

[8] = biological target: T1, recombinant human IGFBP-3; test: cell-based or functional assay
IGFBP-1 [9] = biological target: T2, IGFBP-1; test: BIAcore competition: peptide inhibits IGFBP-1 binding to IGF-I; ratio against bp1-16
IGFBP-1 [10] = biological target: T2, IGFBP-1; test: ELISA competition: peptide inhibits IGFBP-1 binding to IGF-I; ratio to bp1-01 (wt)
[11] = biological target: T1, recombinant human IGFBP-3; test: phage ELISA on IGFBP-3 plate, 50-fold phage dilution, with/without 100 nM IGF-I as competitor (FIG. 29)
Experimental: as §2
In each case, the phagemid clone was grown from a single colony overnight at 37° C. in a culture volume of 5 ml. The phage particles were precipitated and resuspended in 0.5 ml of PBS buffer.

IGFBP-1 [12] = biological target: T2, IGFBP-1; test: ELISA competition: peptide inhibits IGFBP-1 binding to IGF-I; the reference itself
IGFBP-1 [13] = biological target: T2, IGFBP-1; test: ELISA plate assay: peptide inhibits IGFBP-1 binding to IGF-I; the reference itself
IGFBP-1 [14] = biological target: T2, IGFBP-1; test: BIAcore competition: peptide inhibits IGFBP-1 binding to IGF-I; the reference itself
IGFBP-1 [15] = biological target: T2, IGFBP-1; test: BIAcore competition: peptide inhibits IGFBP-1 binding to IGF-II; the reference itself
IGFBP-1 [16] = biological target: T2, IGFBP-1; test: BIAcore competition: peptide inhibits IGFBP-1 binding to IGF-I; position 3 is Ala in the wt
IGFBP-1 [17] = biological target: T2, IGFBP-1; test: biotinylated-IGFBP-1 ELISA: peptide inhibits IGFBP-1 binding to IGF-I; the reference itself
Description: as §1

IGFBP-1 [18] = biological target: T2, IGFBP-1; test: BIAcore competition: peptide inhibits IGFBP-1 binding to IGF-II; position 3 is Ala in the wt
IGFBP-3 = biological target: T4, IGFBP-3 (human, UniProt P17936 28-291); test: BIAcore competition: peptide inhibits IGFBP-3 binding to IGF-I; the reference itself
T4 construct: also called rhIGFBP-3
T4 sequence (P17936 28-291 limits assumed): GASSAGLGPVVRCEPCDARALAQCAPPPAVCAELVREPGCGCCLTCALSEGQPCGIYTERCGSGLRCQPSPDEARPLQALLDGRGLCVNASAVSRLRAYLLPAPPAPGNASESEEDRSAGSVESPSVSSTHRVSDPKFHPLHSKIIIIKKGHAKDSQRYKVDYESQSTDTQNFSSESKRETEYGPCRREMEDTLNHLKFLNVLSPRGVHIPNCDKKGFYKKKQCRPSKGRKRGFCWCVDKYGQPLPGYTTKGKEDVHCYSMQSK

IGFBP-1 [19] = biological target: T2, IGFBP-1; test: ELISA plate assay (starred peptide): peptide inhibits IGFBP-1 binding to IGF-I; ratio against bp1-14
IGFBP-1 [20] = biological target: T2, IGFBP-1; test: ELISA plate assay (starred peptide): peptide inhibits IGFBP-1 binding to IGF-I; ratio against bp1-16

T1 sequence (P17936 28-291 limits assumed): as above

B1: BP3-4D3.11 (peptide)
peptide: VAWEVCWDRHDQGYICTTDS
modifications: disulfide 6-16
notes: Synthetic peptide corresponding to phage clone 4D3.11 (g8) and 3Bi.1 (g3); also called BP14; BP3-4D3.11 (BP14)
[1]
  IC50: 1000 nM

## CRAGPLQWLCEKYF-NH2 (disulfide 1-10 (inferred), bp1-01 lacking the C-terminal Gly) [bp1-16]
IGFBP-1 [2]
  IC50 (114)/IC50 (mut): 0.21 ratio
IGFBP-1 [3]
  IC50 (116)/IC50 (mut): 1 ratio

## CRKGPLQWLCEKYF (g8 bp1-01 selectant) [bp1-11]
IGFBP-1 [4]
  IC50 (mut)/IC50 (wt): 1.9 ratio

## CRKGPLQWLCELYF (g8 bp1-01 selectant) [bp1-10]
IGFBP-1 [4]
  IC50 (mut)/IC50 (wt): 1.1 ratio

B2: bp1-01 (peptide)
peptide: CRAGPLQWLCEKYFG-NH2
modifications: disulfide 1-10; N-terminus assumed
SMILES: CC(C)C[C@@H]1NC(=O)[C@H](Cc2c[nH]c3ccccc23)NC(=O)[C@H](CCC(N)=O)NC(=O)[C@H](CC(C)C)NC(=O)[C@@H]2CCCN2C(=O)CNC(=O)[C@H](C)NC(=O)[C@H](CCCNC(=N)N)NC(=O)[C@@H](N)CSSC[C@@H](C(=O)N[C@@H](CCC(=O)O)C(=O)N[C@@H](CCCCN)C(=O)N[C@@H](Cc2ccc(O)cc2)C(=O)N[C@@H](Cc2ccccc2)C(=O)NCC(N)=O)NC1=O
notes: also called bp1-01 (bp3)
[5]
  IC50, KIRA assay (peptide plus IGF-I plus IGFBP-1): 397 nM
[6]
  IC50: 180 nM

B3: peptide-phage clone HL-1 (g8 display) (peptide, not shown: large carriers)
chain: SEVGCRAGPLQWLCEKYF
modifications: not fully specified (C-terminus, bridges); cysteine pairing not given here; also: polyvalent display on phage particle
notes: Tested as a whole phage particle with polyvalent display; also called g8-phage peptide bp1-01
[7]
  binding result: binds

## SEEVCWPVAEWYLCN (disulfide 5-14) [BP15]
[8]
  IC50, KIRA assay (peptide with IGFBP-3:IGF-1 at a 3:1 ratio): 95000 nM

## EARVCRAGPLQWLCEKYF-NH2 (disulfide 5-14 (inferred), g3 bp1-01 selectant) [bp1-20]
IGFBP-1 [2]
  IC50 (114)/IC50 (mut): 2.6 ratio
IGFBP-1 [9]
  IC50 (116)/IC50 (mut): 12 ratio

## CRAGPLQWLCEKYFSTY-NH2 (disulfide 1-10 (inferred), g3 bp1-01 selectant) [bp1-21B]
IGFBP-1 [2]
  IC50 (114)/IC50 (mut): 0.67 ratio
IGFBP-1 [9]
  IC50 (116)/IC50 (mut): 3.1 ratio

## CRAGPLQWLCEKAA [bp1-18]
IGFBP-1 [10]
  IC50 (mut)/IC50 (wt): 148 ratio

## SEVGCRAGPLQWLCEKYFSTY-NH2 (disulfide 5-14 (inferred), g3 bp1-01 selectant) [bp1-21A]
IGFBP-1 [2]
  IC50 (114)/IC50 (mut): 3.2 ratio
IGFBP-1 [9]
  IC50 (116)/IC50 (mut): 15 ratio

B4: peptide-phage clone 4D3.12 (g8 display) (peptide, not shown: large carriers)
chain: AEWAECWIAGDQLLCVGKDN
modifications: not fully specified (C-terminus, bridges); cysteine pairing not given here; also: polyvalent display on phage particle
notes: Tested as a whole phage particle with polyvalent display
[11]
  percent inhibition of phage binding by IGF-I: > 40%

B5: peptide-phage clone 4D3.9 (g8 display) (peptide, not shown: large carriers)
chain: ETVANCDCYMDLCLCYGSDR
modifications: cysteine pairing not given here; also: C-terminal fusion to linker and M13 g8p, phage-displayed
notes: as for B4
[11]
  percent inhibition of phage binding by IGF-I: > 40%

B6: bp1-02 (peptide)
peptide: SEVGCRAGPLQWLCEKYFG-NH2
modifications: disulfide 5-14; N-terminus assumed
SMILES: CC(C)C[C@@H]1NC(=O)[C@H](Cc2c[nH]c3ccccc23)NC(=O)[C@H](CCC(N)=O)NC(=O)[C@H](CC(C)C)NC(=O)[C@@H]2CCCN2C(=O)CNC(=O)[C@H](C)NC(=O)[C@H](CCCNC(=N)N)NC(=O)[C@@H](NC(=O)CNC(=O)[C@@H](NC(=O)[C@H](CCC(=O)O)NC(=O)[C@@H](N)CO)C(C)C)CSSC[C@@H](C(=O)N[C@@H](CCC(=O)O)C(=O)N[C@@H](CCCCN)C(=O)N[C@@H](Cc2ccc(O)cc2)C(=O)N[C@@H](Cc2ccccc2)C(=O)NCC(N)=O)NC1=O
notes: 19-mer variant of bp1-01; also called bp1-02 (bp3)
[5]
  IC50, KIRA assay (peptide plus IGF-I plus IGFBP-1): 187 nM
[6]
  IC50: 50 nM

B7: bp1-01 (peptide)
peptide: CRAGPLQWLCEKYFG-NH2
modifications: disulfide 1-10; N-terminus assumed
SMILES: CC(C)C[C@@H]1NC(=O)[C@H](Cc2c[nH]c3ccccc23)NC(=O)[C@H](CCC(N)=O)NC(=O)[C@H](CC(C)C)NC(=O)[C@@H]2CCCN2C(=O)CNC(=O)[C@H](C)NC(=O)[C@H](CCCNC(=N)N)NC(=O)[C@@H](N)CSSC[C@@H](C(=O)N[C@@H](CCC(=O)O)C(=O)N[C@@H](CCCCN)C(=O)N[C@@H](Cc2ccc(O)cc2)C(=O)N[C@@H](Cc2ccccc2)C(=O)NCC(N)=O)NC1=O
notes: Synthetic 15-mer; also called (wt); A3
IGFBP-1 [12]
  IC50 (mut)/IC50 (wt): 1 ratio
IGFBP-1 [13]
  IC50 (mut)/IC50 (wt): 1 ratio
IGFBP-1 [14]
  IC50 (mut)/IC50 (wt): 1 ratio
IGFBP-1 [15]
  IC50 (mut)/IC50 (wt): 1 ratio
IGFBP-1 [16]
  IC50 (mut)/IC50 (wt): 1 ratio
IGFBP-1 [17]
  IC50 (mut)/IC50 (wt): 1 ratio
IGFBP-1 [18]
  IC50 (mut)/IC50 (wt): 1 ratio

B8: peptide-phage clone 4C3.2 (g8 display) (peptide, not shown: large carriers)
chain: ELDGWVCIKVGEQNLCYLAE
modifications: not fully specified (C-terminus, bridges); cysteine pairing not given here; also: polyvalent display on phage particle
notes: as for B4
[11]
  percent inhibition of phage binding by IGF-I: > 40%

B9: peptide-phage clone 4D3.8 (g8 display) (peptide, not shown: large carriers)
chain: SEEVCWPVAEWYLCNILGP
modifications: not fully specified (C-terminus, bridges); cysteine pairing not given here; also: polyvalent display on phage particle
notes: as for B4
[11]
  percent inhibition of phage binding by IGF-I: > 40%

## CKEGPLQWLCEKYF (g8 bp1-01 selectant) [bp1-12]
IGFBP-1 [4]
  IC50 (mut)/IC50 (wt): 2.9 ratio

## CKEGPLLWLCEKYF (g8 bp1-01 selectant) [bp1-13]
IGFBP-1 [4]
  IC50 (mut)/IC50 (wt): 2.5 ratio

## SEEVCWPVAEWYLCNMWG (disulfide 5-14) [bp3-01-ox]
IGFBP-3
  IC50 (mut)/IC50 (wt): 1 ratio

## SEMVCRAGPLQWLCEIYF-NH2 (disulfide 5-14 (inferred), g3 bp1-01 selectant) [bp1-19]
IGFBP-1 [19]
  IC50 (114)/IC50 (mut): 2.1 ratio
IGFBP-1 [20]
  IC50 (116)/IC50 (mut): 9.9 ratio
